Data published in publication PMC1802081.

Assays:
Assay in all cases: SPR; BIACORE 2000; biotinylated ligand on a streptavidin-modified CM5 chip (about 200 RU); receptor ectodomain as analyte at 1, 2, 3, 5, 10, 20 and 50 uM; HBS500 (10 mM HEPES pH 7.4, 500 mM NaCl, 3.4 mM EDTA, 0.005% P20); apparent KD from the dose dependence of equilibrium binding
BMP-2 A86P = target: BMP-2 A86P
BMP-2 L100K = target: BMP-2 L100K
BMP-2 N102D = target: BMP-2 N102D
BMP-2 S85R/A86P = target: BMP-2 S85R/A86P
BMP-2 S85R = target: BMP-2 S85R
[1] = target: BMP-2 variant L100K/N102D

- rel. KD (against wildtype BMP-2 from E. coli with the same receptor) (BMP-2 A86P): 1.5 fold
- rel. KD (against wildtype BMP-2 from E. coli with the same receptor) (BMP-2 L100K): 0.84 fold
- rel. KD (against wildtype BMP-2 from E. coli with the same receptor) (BMP-2 N102D): 3.6 fold
- rel. KD (against wildtype BMP-2 from E. coli with the same receptor) (BMP-2 S85R/A86P): 1.3 fold
- rel. KD (against wildtype BMP-2 from E. coli with the same receptor) (BMP-2 S85R): 0.85 fold
- rel. KD (against wildtype BMP-2 from E. coli with the same receptor) [1]: 0.29 fold
Substance: ActR-II receptor ectodomain (from UniProt P27037 20-135)
